Reference: patent publication US20080003614

How the values were obtained:
[1] = test system: 35S-labeled FLAG-MAVS (in vitro translated)
[2] = test system: 35S-labeled FLAG-MAVS-C508R (in vitro translated)

| Substance | cleavage of 35S-labeled MAVS in vitro (SDS-PAGE, PhosphorImaging) [1] | cleavage of 35S-labeled MAVS in vitro (SDS-PAGE, PhosphorImaging) [2] |
| --- | --- | --- |
| Flag-NS3/4A (S139A), protease-dead mutant | the wild type MAVS was cleaved by the active NS3/4A protease, but not the inactive NS3/4A mutant |  |
| Flag-NS3/4A (wild type hepatitis C virus NS3/4A serine protease) | the wild type MAVS was cleaved by the active NS3/4A protease | a point mutation at Cys-508 completely blocked the cleavage of MAVS by NS3/4A in vitro |
